Test results taken from CN112010972A (REYOUNG SUZHOU BIOPHARMACEUTICAL CO LTD, dated 2020).

T1: 带有His标签的人LAG-3蛋白的胞外结构域(Acro) (human, UniProt P18627 23-450)
T1 construct: extracellular domain; Bought protein (Acro); also called Human-LAG-3-His; 抗原; not shown: His tag
T1 sequence (looked up): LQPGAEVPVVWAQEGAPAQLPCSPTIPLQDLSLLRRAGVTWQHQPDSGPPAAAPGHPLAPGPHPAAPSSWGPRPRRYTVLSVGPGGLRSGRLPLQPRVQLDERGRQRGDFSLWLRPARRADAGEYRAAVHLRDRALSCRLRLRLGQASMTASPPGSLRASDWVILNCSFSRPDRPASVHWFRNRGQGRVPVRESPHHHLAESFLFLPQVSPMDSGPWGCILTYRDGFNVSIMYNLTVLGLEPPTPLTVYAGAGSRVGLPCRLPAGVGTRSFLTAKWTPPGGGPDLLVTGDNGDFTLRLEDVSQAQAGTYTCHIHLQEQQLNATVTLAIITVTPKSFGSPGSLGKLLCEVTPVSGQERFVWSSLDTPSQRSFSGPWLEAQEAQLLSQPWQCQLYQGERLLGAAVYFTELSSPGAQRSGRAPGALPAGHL


Biological target: T1, 带有His标签的人LAG-3蛋白的胞外结构域(Acro)
Assay: SPR (Biacore), supernatant captured on Protein A chip, 100 nM human LAG-3 as analyte, 1:1 fit

Kd [nM] | Binder
~0.1 | 抗LAG-3人鼠嵌合抗体 17E3VL-17E3VH (antibody, V domains shown) VH: EVMLVESGGGLVKPGGSLKLSCAASGFTFITYAMSWVRQTPEKRLEWVASINNGGTHYPDTMKGRFTISRDNARNILYLQMSSLRSEDTAMYYCARSYNGIPHYFDYWGQGTTLTVSS VL: DILMTQTPASLAVSLGQRATISCRTSESIDNYGVSFMNWFQQKPGQPPRLLIYAASNQGSGVPARFSGSGSGADFSLNIHPMEEDDSALYFCQQSKEVPFTFGSGTKLEIKR
~0.1 | 抗LAG-3人鼠嵌合抗体 29VL-17E3VH (antibody, V domains shown) VH: EVMLVESGGGLVKPGGSLKLSCAASGFTFITYAMSWVRQTPEKRLEWVASINNGGTHYPDTMKGRFTISRDNARNILYLQMSSLRSEDTAMYYCARSYNGIPHYFDYWGQGTTLTVSS VL: not shown
~0.1 | 抗LAG-3人鼠嵌合抗体 78H3VL-78H3VH (antibody, V domains shown) VH: EVQLQQSGPVLAKPGASVKMSCKTSGYTLTDYYMNWVKQSHGKSLEWIGIINPYNGDTSYNQRFKGKATLTVDKSSSTAYMELNSLTSEDSAVYYCARDDGYYVDYFDYWGQGTTLTVSS VL: DIQMTQSPSSLSASLGERVSLTCRASQDIGNSLNWLQQEPDGTIKRLIYATSSLDSGVPKRFSGSRSGSDYSLTISSLESEDFVDYYCLQHASSPPTFGAGTKLELKR
